Measurements from US20130310317A1 (Bristol-Myers Squibb, published 2013).
Residue numbers refer to the chain shown, from its start.

B1: 353F10 (designed binder)
chain: VSDVPRDLEVVAATPTSLLISWPTHYKVARYYRITYGETGGNSPVQEFTVPKHTYTATISGLKPGVDYTITVYAVTTTKGLRHYGPISINYRTHHHHHH
notes: Optimized derivative of 218C04
B2: 354F06 (designed binder)
chain: VSDVPRDLEVVAATPTSLLISWTTNLQVSRYYRITYGETGGNSPVQEFTVPKANTTATISGLKPGVDYTITVYAVTVSKGNRSYGPISINYRTHHHHHH
notes: as for B1
B3: 354G02 (designed binder)
chain: VSDVPRDLEVVAATPTSLLISWAEHLQVSRYYRITYGETGGNSPVQEFTVPRGVYTATISGLKPGVDYTITVYAVTPSNIIGRHYGPISINYRTHHHHHH
notes: as for B1
B4: 339A01 (designed binder)
chain: VSDVPRDLEVVAATPTSLLISWSTALKVQRYYRITYGETGGNSPVQEFTVPKHSHTATISGLKPGVDYTITVYAVTKMRDYRPISINYRTHHHHHH
notes: as for B1
B5: 354G09 (designed binder)
chain: B4 chain with S23P, T24Q, A25H, K27R, K52R, H53G, H55D
notes: as for B1
B6: 354F11 (designed binder)
chain: B4 chain with S23G, T24K, A25H, K27V, K52R, H53G, S54H, H55Y
notes: as for B1
B7: 385A08 (designed binder)
chain: B4 chain with T24A, A25R, Q29A, H53N, S54V, H55Y, K77R, M78F, R82Q
notes: FG loop optimized derivative of 338A06; also called clone 385A08; unmodified 385A08
B8: 386A03 (designed binder)
chain: B4 chain with T24A, A25R, Q29A, H53N, S54V, H55Y, K77N, M78L, R82G
notes: FG loop optimized derivative of 338A06
B9: 387B01 (designed binder)
chain: B4 chain with T24A, A25R, Q29A, H53N, S54V, H55Y, K77S, M78L, R82G
notes: as for B8
B10: 386F10 (designed binder)
chain: B4 chain with T24A, A25R, Q29A, H53N, S54V, H55Y, K77L, M78L, R82G
notes: as for B8
B11: 338A05 (designed binder)
chain: B3 chain with A23S, E24D, H25S, Q27K, R52K, G53Q, V54Y, Y55H
notes: as for B1
B12: 354A10 (designed binder)
chain: VSDVPRDLEVVAATPTSLLISWSNRLVVKRYYRITYGETGGNSPVQEFTVPHQMKTATISGLKPGVDYTITVYAVTPGGYSGRNYGPISINYRTHHHHHH
notes: as for B1
B13: 386F11 (designed binder)
chain: B4 chain with T24A, A25R, Q29A, H53N, S54V, H55Y, K77L, M78T, R82K
notes: as for B8
B14: 387A03 (designed binder)
chain: B4 chain with T24A, A25R, Q29A, H53N, S54V, H55Y, K77S, M78Y, R82W
notes: as for B8
B15: 386H05 (designed binder)
chain: B4 chain with T24A, A25R, Q29A, H53N, S54V, H55Y, K77V, M78V
notes: as for B8
B16: 385H06 (designed binder)
chain: B4 chain with T24A, A25R, Q29A, H53N, S54V, H55Y, K77Q, M78L, R82S
notes: as for B8
B17: 385A09 (designed binder)
chain: B4 chain with T24A, A25R, Q29A, H53N, S54V, H55Y, K77R, M78I, R82G
notes: as for B8
B18: 386F01 (designed binder)
chain: B4 chain with T24A, A25R, Q29A, H53N, S54V, H55Y, K77T, M78I
notes: as for B8
B19: 385F08 (designed binder)
chain: B4 chain with T24A, A25R, Q29A, H53N, S54V, H55Y, K77S, M78L, R82A
notes: as for B8
B20: 385B04 (designed binder)
chain: B4 chain with T24A, A25R, Q29A, H53N, S54V, H55Y, K77A, M78Y, R82Q
notes: as for B8
B21: 386A05 (designed binder)
chain: B4 chain with T24A, A25R, Q29A, H53N, S54V, H55Y, K77E, M78R
notes: as for B8
B22: 387A09 (designed binder)
chain: B4 chain with T24A, A25R, Q29A, H53N, S54V, H55Y, K77M, M78S, R82G
notes: as for B8
B23: 385E01 (designed binder)
chain: B4 chain with T24A, A25R, Q29A, H53N, S54V, H55Y, K77A, M78V
notes: as for B8
B24: 387C02 (designed binder)
chain: B4 chain with T24A, A25R, Q29A, H53N, S54V, H55Y, K77G, M78V, D80N, R82G
notes: as for B8
B25: 385E04 (designed binder)
chain: B4 chain with T24A, A25R, Q29A, H53N, S54V, H55Y, K77E, M78L, D80N, R82G
notes: as for B8
B26: 385D05 (designed binder)
chain: B4 chain with T24A, A25R, Q29A, H53N, S54V, H55Y, K77R, M78E
notes: as for B8
B27: 386A07 (designed binder)
chain: B4 chain with T24A, A25R, Q29A, H53N, S54V, H55Y, K77L, M78V, D80N, R82G
notes: as for B8

What follows are binders tested against T1, recombinant human IGF-IR (human, UniProt P08069 31-932) (assay: competitive ELISA: plate coated with 30 nM IGF-IR, clone bound first, then 10 nM biotinylated IGF-I as the blocked ligand, streptavidin-HRP/TMB, OD450).
T1 construct: Bought (R&D Systems); also called insulin-like growth factor-I receptor; IGF-1R
Experimental: MaxiSorp™ plates (Nunc International, Rochester, N.Y.) were coated with 30 nM IGF-IR in PBS at 4° C. overnight followed by blocking in OptEIA buffer (BD biosciences, San Diego, Calif.) for 3 hours at room temperature. Purified fibronectin-based scaffold proteins in OptEIA buffer were bound to each well for 1 hour at room temperature at concentrations ranging from 50 pM to 1 μM. […] The excess ligand was removed by washing with PBST and bound ligand was detected with streptavidin-HRP (Pierce, Rockford, Ill.) using TMB detection reagents (BD biosciences) according to the manufacturer's instructions

IC50 (read off the curve) [nM] | binding result | Binder
~1 |  | B1
 | binds | B2
 | binds | B3
~1 |  | B4
 | binds | B5
 | binds | B6

Each binder was assayed against human IGF-IR on cells (human, UniProt P08069 31-1367) (assay: cell-based or functional assay).

IC50, serum mediated proliferation of NCI-H929 cells [nM] | Binder
~0.1 | B7

The binders below were run against T2, IGF-IR-Fc (human, UniProt P08069 31-932) (assay: SPR (BIAcore); IGF-IR-Fc captured on Protein A, clone in solution).
T2 construct: range 1-932; Made in house by transient transfection, captured on Protein A on CM5 chips for kinetic analysis; also called human IGF-IR-Fc fusion protein; recombinant, immobilized IGF-IR (BIAcore); not shown: hinge and constant regions of human IgG1
Experimental: BIAcore analysis was performed using recombinant, immobilized IGF-IR and solution-phase clones in order to determine binding kinetics and binding affinities.
(§1) The binding kinetics of fibronectin-based scaffold proteins binding proteins to the target was measured using BIAcore 2000 or 3000 biosensors (Pharmacia Biosensor). A capture assay was developed utilizing an IGF-IR-Fc fusion. A similar reagent had been described by Forbes et al. (Forbes et al. 2002, European J. Biochemistry, 269, 961-968). The extracellular domain of human IGF-IR (aa 1-932) was cloned into a mammalian expression vector containing the hinge and constant regions of human IgG1. Transient transfection of the plasmid produced a fusion protein, IGF-IR-Fc which was subsequently purified by Protein A chromatography and captured on Protein A immobilized on Biasensor CM5 chips by amine coupling. The kinetic analysis involved the capture of IGF-IR-Fc on Protein A followed by injection of the fibronectin-based scaffold protein in solution and regeneration of the Protein A surface by glycine pH 2.0. Sensorgrams were obtained at each concentration and were evaluated using a program Biaevaluation, BIA Evaluation 2.0 (BIAcore), to determine the rate constants kₐ (kₒₙ) and kd (koff) The dissociation constant, KD was calculated from the ratio of rate constants koff/kₒₙ. Typically, a concentration series (2 uM to 0 uM) of purified fibronectin-based scaffold protein was evaluated for binding to protein A captured human IGF-IR-Fc fusion protein.

Kd [nM] | koff [s⁻¹] | kon [M⁻¹ s⁻¹] | Binder
0.088 | 0.00046 | 5.2e+06 | B8
0.067 | 0.00044 | 6.5e+06 | B9
0.034 | 0.00019 | 5.7e+06 | B7
0.123 | 0.00023 | 1.9e+06 | B10

These binders were tested against T2, IGF-IR-Fc (assay: SPR (BIAcore); IGF-IR-Fc captured on Protein A, analyte in solution).
Experimental: as §1

Kd [nM] | koff [s⁻¹] | kon [M⁻¹ s⁻¹] | Binder
0.023 | 0.00016 | 6.9e+06 | B7

What follows are binders tested against T3, recombinant human insulin receptor (human, UniProt P06213-2 28-944, limits assumed) (assay: SPR (BIAcore); IR amine-coupled to chip, clone at 10 µM, signal as % of insulin signal).
T3 construct: Amine-coupled to a CM5 chip (8300 RU); also called IR
Experimental: One liter E. coli growths of selected optimized clones were prepared and the proteins were purified.
(§2) In brief, 60 ug/mL of IR diluted in acetate 4.5 was coupled/immobilized to a level of 8300 RU and 11.9 ug/mL of VEGF-R2-Fc diluted in acetate 5.0 was immobilized to a level of 9700 RU on flow cells 2 and 3. A blank reference surface was prepared on FC 1. […] Fibronectin-based scaffold proteins were diluted to 10 uM in HBS-EP (10 mM Hepes 150 mM NaCl 3 mM EDTA 0.05% Surfactant P20) and injected at 20 uL/min for 3 minutes over the flow cells at 25 C and dissociation was observed over 10 mins.

% IR Binding at 10 µM [%] | Binder
1 | B1
45 | B11
> 100 | B4
1 | B12

These binders were tested against T1, recombinant human IGF-IR (assay: direct binding ELISA: plate coated with 10 nM IGF-IR, His-tagged clone detected with His-HRP probe, TMB, OD450).
Experimental: MaxiSorp™ plates (Nunc International, Rochester, N.Y.) were coated with 10 nM IGF-IR in PBS at 4° C. overnight followed by blocking in PBS-casein buffer (Pierce) for 3 hours at room temperature. Purified fibronectin-based scaffold proteins in casein buffer were bound to each well for 1 hour at room temperature at a concentration of 5 nM. The plate was washed with PBST and 100 μl of a 1:4000 dilution of His-HRP probe (Pierce) was added to each well with incubation for 15 min at room temperature. The wells were washed 5 times with PBST and the bound HRP was detected with TMB detection reagents (BD biosciences) according to the manufacturer's instructions.

binding result | EC50 (read off the curve) [nM] | Binder
binds |  | B13
binds |  | B14
binds |  | B15
binds |  | B16
 | ~1 | B9
binds |  | B17
binds |  | B18
 | ~0.9 | B19
binds |  | B20

What follows are binders tested against T3, recombinant human insulin receptor (assay: SPR (BIAcore), IR amine-coupled to chip).
Experimental: as §2

binding result | Binder
no binding (tested: 10 µM) | B9
no binding (tested: 10 µM) | B7

Target: T2, IGF-IR-Fc
Assay: SPR (BIAcore); IGF-IR-Fc captured on Protein A, clone in solution
Remark: another data set of the same source
Experimental: One liter E. coli growths of selected optimized clones were prepared and the proteins were purified. Surface plasmon resonance (BIAcore) analysis was performed using recombinant, immobilized IGF-IR and solution-phase clones in order to determine binding kinetics and binding affinities.
as §1

Kd [nM] | koff [s⁻¹] | kon [M⁻¹ s⁻¹] | Binder
0.056 | 0.00021 | 3.7e+06 | B1
0.261 | 0.00033 | 1.3e+06 | B11
0.565 | 0.00067 | 1.2e+06 | B4
0.158 | 0.00018 | 1.1e+06 | B12

These binders were tested against T1, recombinant human IGF-IR (assay: direct binding ELISA on coated IGF-IR).

binding result | Binder
binds | B21
binds | B22
binds | B23
binds | B24
binds | B25
binds | B26
binds | B27
